17 molecules from US20210032331A1 (PHANES THERAPEUTICS, published 2021) can be followed below.

Test [1] addresses T1, human LAG-3(ECD)-mFc (human, UniProt P18627 23-450).
T1 construct: also called hLAG3-mFc; human LAG-3 extracellular domain (ECD) fused to mouse Fc; not shown: mouse Fc
T1 sequence: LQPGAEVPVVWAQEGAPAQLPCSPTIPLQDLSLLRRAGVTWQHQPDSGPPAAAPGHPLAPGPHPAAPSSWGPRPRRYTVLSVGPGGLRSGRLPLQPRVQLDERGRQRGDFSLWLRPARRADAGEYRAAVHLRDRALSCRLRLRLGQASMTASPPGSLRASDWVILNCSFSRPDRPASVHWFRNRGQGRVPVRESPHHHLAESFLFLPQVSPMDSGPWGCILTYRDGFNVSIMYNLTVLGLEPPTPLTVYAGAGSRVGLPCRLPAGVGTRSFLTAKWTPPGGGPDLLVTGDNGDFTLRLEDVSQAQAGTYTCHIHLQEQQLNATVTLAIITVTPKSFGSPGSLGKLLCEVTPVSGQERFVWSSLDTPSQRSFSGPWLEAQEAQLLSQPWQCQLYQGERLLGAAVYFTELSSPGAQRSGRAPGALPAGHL
As to the kind of experiment: FACS blocking assay: mAb preincubated with LAG-3(ECD)-mFc (1 µg/mL), blocked ligand MHC class II on Daudi cells, PE anti-mouse Fc. On the procedure:
FIGS. 4A-4D show inhibition of human LAG-3 binding to MHC class II molecules by select anti-LAG-3 mAbs. An in vitro binding assay was performed using recombinant LAG-3(ECD)-mFc and Daudi cells which express human MHC class II molecules. […] The binding of LAG-3(ECD)-mFc to Daudi cells in the presence of anti-LAG-3 mAbs or a control mAb was analyzed by FACS.
(§1) Human Daudi cells were cultured in RPMI+10% FBS. Human LAG-3(ECD)-mFc protein (human LAG-3 ECD fused to mouse Fc) at 1 μg/ml final concentration was incubated with purified mouse, humanized, or chimeric anti-LAG-3 mAbs at various concentrations for 15 minutes at 4° C. The mixture was then added to 100,000 human Daudi cells in a 96-well round bottom plate, mixed and incubated for 15 minutes on ice. Cells were then centrifuged at 1,000 rpm for 5 minutes and washed with FACS buffer (PBS supplemented with 5% BSA) three times. The cells were then incubated with PE-conjugated goat anti-mouse Fc polyclonal antibodies on ice for 15 minutes, washed with FACS buffer three times and then resuspended in FACS buffer containing 0.1 μg/ml PI (propidine iodine) for live/dead cell gating. Cells were then run through the FACS Caliber instrument and the data were analyzed by the Flowjo software. Results of the inhibition of LAG-3 binding to Daudi cells by chimeric mAbs B1C, B3C, B4C, BSC, B9C, and B11C are shown in FIG. 4B.

For test [2], the target named is T2, B12 (human IgG1 heavy chain and kappa light chain chimeric).
T2 construct: Chimeric: mouse VH and VL with human IgG1 heavy chain and kappa light chain constant regions
T2 sequence (VH, as listed by the source): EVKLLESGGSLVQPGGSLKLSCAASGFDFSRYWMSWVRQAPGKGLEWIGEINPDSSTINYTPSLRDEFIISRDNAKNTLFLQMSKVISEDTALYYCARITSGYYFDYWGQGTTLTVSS
The test can be described thus: ELISA peptide competition: peptide preincubated with chimeric IgG1 B12, competitor hLAG3-mFc; peptide at 600-fold hLAG3-mFc; capture on anti-human IgG, anti-mouse IgG-HRP. On the procedure:
(§2) FIGS. 5A-5D show the effect of competition peptides on LAG-3 binding to anti-LAG-3 mAbs. […] B5/IgG4 was preincubated with a competition peptide for 30 minutes. Then human LAG-3 extracellular domain (ECD) fused to mouse Fc (hLAG3-mFc) was added (the final peptide concentration was 600-fold that of hLAG3-mFc) and the mixture was incubated for 60 minutes before being added to an ELISA plate coated with anti-human IgG. The incubation was carried out at 4° C. overnight. After washing, the hLAG3-mFc bound to the immobilized B5/IgG4 on the ELISA plate was detected by adding anti-mouse IgG conjugated to horseradish peroxidase (HRP) and incubating for 60 minutes. Then, after washing, the ELISA was developed using One-step Detection Solution and measured as the absorbance at 450 nm.
(§3) Anti-human IgG in carbonate coating buffer was coated on an ELISA plate at 4° C. (50 μL/well at 1 μg/mL) overnight. In each well of a separate plate, a chimeric version of a given anti-LAG-3 mAb (50 μL/well at 1.4 nM) and a competition peptide (50 μL/well at various concentrations as indicated in the figures) were mixed and incubated for 30 minutes at room temperature. Then human LAG-3 extracellular domain (ECD) fused to mouse Fc (hLAG3-mFc) was added to each well (50 μL/well at 2 nM) and the final mixture was incubated at room temperature for 60 minutes before added to the ELISA plate (50 μL/well) for another 60-minute incubation. The final incubation after adding the mixture to the ELISA plate was also performed at 4° C. overnight in some assays. The plate was washed and the binding of hLAG3-mFc to the immobilized anti-LAG-3 mAb was detected by adding anti-mouse IgG conjugated to horseradish peroxidase ([…]) (ThermoFisher Scientific, Cat#: A16084; Waltham, Mass.) and incubating for 60 minutes.

For another test, the target named is T3, B5/IgG4.
T3 construct: Chimeric: mouse VH and VL with human IgG4 heavy chain and kappa light chain constant regions; also called B5 (human IgG4 heavy chain and kappa light chain chimeric)
As to the kind of experiment: ELISA peptide competition: peptide preincubated with B5/IgG4, competitor hLAG3-mFc; peptide at 600-fold hLAG3-mFc; capture on anti-human IgG, anti-mouse IgG-HRP. The procedure: as §2, §3
A general note: ELISA stands for enzyme-linked immunosorbent assay.

The target of test [3] is T1, human LAG-3(ECD)-mFc. As to the kind of experiment: FACS competition: mAb preincubated with human LAG-3(ECD)-mFc (1 ug/ml); binding to MHC class II on Daudi cells detected with anti-mouse Fc-PE. The procedure:
as §1
The mouse anti-hLAG-3 mAbs B5 and B7 were humanized to reduce the potential of immunogenicity when used in human patients. The CDRs in both the heavy and light chains of the mouse mAb were grafted into human framework that have the highest possibility of maintaining the proper structure required for antigen binding. Backmutations from human reside to mouse residue were designed when necessary. The sequences of the humanized VH and VL regions are shown in Table 11 and Table 12, respectively. The humanized VH and VL regions were fused to the constant regions of human IgG4 heavy chain and kappa light chain, respectively, to generate humanized mAbs. Constructs corresponding to the mAb sequences were used for transient transfection in 293E cells. Purified mAbs were analyzed for their ability to inhibit hLAG-3 binding to MHC class II molecules on Daudi cells.

B1: B15 (antibody, V domains shown)
VH: EVQLQQSGAELVRPGASVKLSCTASGFNIKDDYMFWVKQRPEQGLEWIGWIDPENGDTEYASKFQGKATITADTSSNTAYLQLSSLTSEDTAVYYCTLYAYWGQGTLVTVSA
VL: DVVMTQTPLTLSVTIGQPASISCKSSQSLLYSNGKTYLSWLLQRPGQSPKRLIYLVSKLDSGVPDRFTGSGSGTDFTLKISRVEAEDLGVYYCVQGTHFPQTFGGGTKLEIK
notes: Mouse mAb from hybridoma; also called mouse anti-LAG-3 mAb B15
On to B1, for which the binding result with human LAG-3(ECD)-mFc [1] is “binds”.

B2: B3C (antibody, V domains shown)
VH: QVQLQQPGAELLKPGASVKMSCKASGYTFTSYDIHWLKQTPGQGLEWIGAIYPENGDSSYSQKFKDKATLTADKSSNTAYIHLSSLTSEDSAVYYCARGGYYDYVWFPYWGQGTLVTVSA
VL: DVVMTQTPLSLPVSLGDQASISCRSSQSILYSNGYTYLEWYLQKPGQSPKLLIYGVSNRFSGVPDRFSGSGSGTDFTLKISRVESEDMGVYYCFQGTHVPLTFGAGTKLELK
notes: Chimeric: mouse VH and VL fused to constant regions of human IgG1 heavy chain and kappa light chain; also called the chimeric version of mouse mAb B3; B3 (human IgG1 heavy chain and kappa light chain chimeric)
Turning to B2, the “IC50 (read off the curve)” value in the test with human LAG-3(ECD)-mFc [1] is around 0.4 µg/mL.

B3: B4C (antibody, V domains shown)
VH: QVQLQQPGAELLKPGASVKMSCKASGYTFTSYDIHWLKQTPGQGLEWIGAIYPENGDSSYSQKFKGKATLTADKSSNTAYIHLSSLTSEDSAVYYCARGGYFDYVWFPYWGQGTLVTVSA
VL: DVVMTQTPLSLPVSLGDQASISCRSSQSIVYSNGYTYLEWYLQKPGQSPKLLIYGVSNRFSGVPDRFSGSGSGTDFTLKISRVEAEDMGVYYCFQGTHVPLTFGAGTKLELK
notes: Chimeric: mouse VH and VL fused to constant regions of human IgG1 heavy chain and kappa light chain; also called the chimeric version of mouse mAb B4; B4 (human IgG1 heavy chain and kappa light chain chimeric)
Take B3: in the test with human LAG-3(ECD)-mFc [1], the “IC50 (read off the curve)” value was around 0.4 µg/mL.

As to QPDSGPPAAAPGHPLA (also called peptide Q16) [Q16], the binding result (in test [2]; with B5/IgG4) was “binds” in each case.

For QPDSGPPAAAPGHPLAP (also called peptide Q17) [Q17], the binding result (in test [2]; with B5/IgG4) was “binds” in each case.

Regarding GPPAAAPGHPLAPGPHPAA (also called peptide 1-19) [1-19], the binding result in test [2] is recorded as “binds”.

For the molecule SGPPAAAPGHPLAP (also called peptide S14) [S14], the binding result (in test [2]; in the test with B5/IgG4) was “binds” in each case.

B4: BG29 (human IgG4 heavy chain and kappa light chain chimeric) (antibody, V domains shown)
VH: QIQLQQSGPEVVKPGASVRISCKASGYTFSDYHINWVKQKPGQGLEWIGWIYPGRGDPEYNEKFKGKATLTVDRSASTAYMQLSSLTSEDTSVYFCEIYYGNYIDYWGQGTTLTVSS
VL: DIVMTQAAPSVPVTPGESVSISCRSSKSLLHSDGKTYLYWFLQRPGQSPQRLIYYMSNLASGVPDRFSGRGSGTDFTLRISRVEAEDVGVYYCMQSLEYPWTFGGGTKLEIK
notes: Chimeric: mouse VH and VL with human IgG4 heavy chain and kappa light chain constant regions; also called chimeric BG29
In the case of B4, the “IC50 (read off the curve)” value with human LAG-3(ECD)-mFc [1] is around 1 nM.

In the case of PDSGPPAAAPGHPLAP (also called peptide P16) [P16], the binding result (in test [2]; with B5/IgG4) was “binds” in each case.

B5: B7(H6L8) (antibody, V domains shown)
VH: EFQLVQSGAEVKKPGASVKVSCKASGYSFSDYNLNWVRQAPGQTLEWMGLINLDSAATVYNQKFKGKATMTIDQSTSTAYMELSSLRSEDTAVYYCASYDYWGQGTLVTVSS
VL: DIQMTQSPSSLSASVGDRVTITCRASQDISHYLNWFQQKPGKAPKRLIYETSTLDFGVPSRFSGSGSGTDFTFTISSLQPEDIATYYCLQYATYPLTFGGGTKVEIK
notes: Humanized VH and VL fused to constant regions of human IgG4 heavy chain and kappa light chain; also called humanized B7 with B7/H6 heavy chain and B7/L8 light chain
The term IC50 denotes the concentration that gives 50% inhibition. A lower IC50 goes with greater potency in that assay. As for B5, in the test with human LAG-3(ECD)-mFc [3], the IC50 amounted to 1.19 nM.

Consider DSGPPAAAPGHPLAP (also called peptide D15) [D15], for which the binding result (in test [2]; with B5/IgG4) was “binds” in each case.

B6: B9C (antibody, V domains shown)
VH: EVQLRQSGPVLVKPGASVKMSCKASGYTFTGYYMNWVKQSHGKSLEWLAVINPYNGDTAYNRKFKGRATLTVDKSSSTAYMELNRLTSEDSAVYYCVRDDGYHVRYFDVWGTGTTVTVSS
VL: DIQMTQSPSSLSASLGERVSLTCRASQDISDSLCWLQQKPDGTIKRLIYSTSTLDSGVPKRFSGSRSGSDYSLTISSLESEDFADYYCLQYASSPPTFGGGTKLEIK
notes: Chimeric: mouse VH and VL fused to constant regions of human IgG1 heavy chain and kappa light chain; also called the chimeric version of mouse mAb B9
Regarding B6, in the test with human LAG-3(ECD)-mFc [1], the “IC50 (read off the curve)” value was around 0.06 µg/mL.

B7: B11C (antibody, V domains shown)
VH: EVQLQQSGPVLVRPGASVKMSCKASGYTFTNYYMNWVKQSHGKSLEWIGVINPYNGDIAYSQKFKGKATLTVDKSSSTAYMELKSLTSEDSAVYYCARDDGYYVYYFDCWGQGTTLTVSS
VL: DIQMTQSPSSLSASLGERVSLTCRASQDIGGSLNWLQQKPDGTIKRLIYSTSTLDSGVPKRFSGSRSGSDYSLTISSLESEDFADYYCLQNANSPPTFGGGTKLEIK
notes: Chimeric: mouse VH and VL fused to constant regions of human IgG1 heavy chain and kappa light chain; also called the chimeric version of mouse mAb B11
Consider B7, for which the “IC50 (read off the curve)” value with human LAG-3(ECD)-mFc [1] is around 0.1 µg/mL.

B8: B1C (antibody, V domains shown)
VH: DVQLQESGPGLVKPSQSLSLTCTVTGYSITSDYAWNWIRQFPGNKLEWMGYIDYSGITSYNPSLKSRISITRDTSKNQFFLQLNSVTTEDTATYYCAREDHYDLAWFAYWGQGTLVTVSA
VL: DIQMTQTTSSLSASLGDRVTISCRASQDISNYLNWYQQKPDGTVKLLIYYTSRLHSGVPSRFSGSGSGTDYSLTISNLEPEDIATYYCHQYSNRPPTFGGGTKLEIK
notes: Chimeric: mouse VH and VL fused to constant regions of human IgG1 heavy chain and kappa light chain; also called the chimeric version of mouse mAb B1
On to B8, for which, in the test with human LAG-3(ECD)-mFc [1], the “IC50 (read off the curve)” value is around 0.4 µg/mL.

B9: B7C (antibody, V domains shown)
VH: EFQLQQSGPELVKPGASVKISCKASGYSFSDYNLNWVKQSNGKTLEWIGLINLDSAATVYNQKFKGKATLTIDQSSTTAYMQLNSLTSDDSAVYYCASYDYWGQGTTLTVSS
VL: DIQMTQSPSSLSASLGERVSLSCRASQDISHYLNWFQQKPDGTFKRLIYETSTLDFGVPKRFSGSRSGSDYSLTIGSLESEDFADYYCLQYATYPLTFGAGTKLELK
notes: Chimeric: mouse VH and VL fused to constant regions of human IgG1 heavy chain and kappa light chain; also called the chimeric version of mouse mAb B7
Consider B9, for which, in the test with human LAG-3(ECD)-mFc [1], the “IC50 (read off the curve)” value is around 0.3 µg/mL.

B10: B10C (antibody, V domains shown)
VH: EFQLQQSGPELVKPGASVKISCKASGYSFTDYNLNWVKESNGKSLEWIGLITLDYGTTIYNQKFKGKATLTVDQSSSIAYMQLNSLTSDDSAVYYCACYDYWGQGTTLTVSS
VL: DIQMTQSPSSLSASLGERVSLTCRASQDISNYLNWFQQKPDGTFKRLIYATSTLDFGVPKRFSGSRSGSDYSLTISSLESEDFADYYCLQYASYPLTFGAGTKLELK
notes: Chimeric: mouse VH and VL fused to constant regions of human IgG1 heavy chain and kappa light chain; also called the chimeric version of mouse mAb B10
As for B10, the “IC50 (read off the curve)” value with human LAG-3(ECD)-mFc [1] was around 0.3 µg/mL.

In the case of PPAAAPGHPLA (also called peptide 2-12) [2-12], in the test with B5/IgG4, the binding result is “binds”.
